Reference: paper PMC11142921, “Antibody discovery identifies regulatory mechanisms of protein arginine deiminase 4” (Nature Chemical Biology, 2024)
Numbering of substitutions follows the chain as printed. Numbers in names are those of the source.

Experiments:
[1] = target: T1, human protein arginine deiminase 4 (hPAD4), wild type (human, UniProt Q9UM07, biotin on the N-terminal AviTag); experiment: cell-based or functional assay
[2] = target: T1, human protein arginine deiminase 4 …; experiment: BLI; Octet RED384; biotinylated hPAD4 on streptavidin biosensors, antibody (IgG by the legend) as analyte; TBSTB; 2 and 10 mM Ca2+; 1:1 monovalent model; details: both partners purified
PAD3 = target: T2, PAD3 (Homo sapiens (assumed), UniProt Q9ULW8); experiment: BLI; binding of the functional human antibodies to PAD4, PAD2 and PAD3; who was immobilised and the antibody format are not told for this experiment; details: both partners purified
T2 construct: PAD3, commercially available; also called protein arginine deiminase 3
T2 sequence (Q9ULW8 whole entry): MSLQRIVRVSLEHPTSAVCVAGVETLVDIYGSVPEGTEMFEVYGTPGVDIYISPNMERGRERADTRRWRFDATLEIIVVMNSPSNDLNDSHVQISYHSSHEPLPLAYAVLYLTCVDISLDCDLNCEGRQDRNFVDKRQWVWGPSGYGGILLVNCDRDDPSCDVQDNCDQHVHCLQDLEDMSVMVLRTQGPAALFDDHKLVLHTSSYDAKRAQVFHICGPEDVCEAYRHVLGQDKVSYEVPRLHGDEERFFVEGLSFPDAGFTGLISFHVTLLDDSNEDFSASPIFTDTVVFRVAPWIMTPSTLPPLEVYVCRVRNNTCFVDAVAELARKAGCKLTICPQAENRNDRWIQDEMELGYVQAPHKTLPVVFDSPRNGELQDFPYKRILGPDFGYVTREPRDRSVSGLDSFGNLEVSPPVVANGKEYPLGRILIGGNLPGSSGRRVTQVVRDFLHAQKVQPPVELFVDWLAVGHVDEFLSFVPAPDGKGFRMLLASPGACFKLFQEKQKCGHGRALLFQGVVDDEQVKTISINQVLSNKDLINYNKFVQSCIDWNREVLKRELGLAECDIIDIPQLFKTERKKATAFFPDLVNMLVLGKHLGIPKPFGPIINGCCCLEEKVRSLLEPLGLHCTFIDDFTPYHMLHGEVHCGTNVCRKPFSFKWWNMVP

[3] = target: T1, human protein arginine deiminase 4 …; experiment: BLI; Octet RED384; biotinylated hPAD4 (WT or mutant) on streptavidin biosensors, purified binder as analyte; TBSTB; calcium concentration not told for these experiments; 1:1 monovalent model; details: both partners purified
[4] = target: T1, human protein arginine deiminase 4 …; experiment: negative-stain EM; hPAD4 incubated with Fab fragments in equimolar amounts; 2D micrographs; uranyl formate stain; details: both partners purified
[5] = target: T3, mouse protein arginine deiminase 4 (mPAD4) (Mus musculus, UniProt Q9Z183, biotin on the N-terminal AviTag); experiment: BLI; Octet RED384; biotinylated mPAD4 on streptavidin biosensors, antibody as analyte; TBSTB; calcium-free form of mPAD4; details: both partners purified
T3 construct: Protein arginine deiminase 4, mouse; PreScission or TEV site between the tags and PAD4; also called murine PAD4; source: BirA-expressing E. coli (C43 (DE3) Pro+ or BL21 Gold (DE3)), purified (Ni-NTA, 0.5 mM TCEP); not shown: AviTag, N-terminal, kept
T3 sequence (Q9Z183 whole entry): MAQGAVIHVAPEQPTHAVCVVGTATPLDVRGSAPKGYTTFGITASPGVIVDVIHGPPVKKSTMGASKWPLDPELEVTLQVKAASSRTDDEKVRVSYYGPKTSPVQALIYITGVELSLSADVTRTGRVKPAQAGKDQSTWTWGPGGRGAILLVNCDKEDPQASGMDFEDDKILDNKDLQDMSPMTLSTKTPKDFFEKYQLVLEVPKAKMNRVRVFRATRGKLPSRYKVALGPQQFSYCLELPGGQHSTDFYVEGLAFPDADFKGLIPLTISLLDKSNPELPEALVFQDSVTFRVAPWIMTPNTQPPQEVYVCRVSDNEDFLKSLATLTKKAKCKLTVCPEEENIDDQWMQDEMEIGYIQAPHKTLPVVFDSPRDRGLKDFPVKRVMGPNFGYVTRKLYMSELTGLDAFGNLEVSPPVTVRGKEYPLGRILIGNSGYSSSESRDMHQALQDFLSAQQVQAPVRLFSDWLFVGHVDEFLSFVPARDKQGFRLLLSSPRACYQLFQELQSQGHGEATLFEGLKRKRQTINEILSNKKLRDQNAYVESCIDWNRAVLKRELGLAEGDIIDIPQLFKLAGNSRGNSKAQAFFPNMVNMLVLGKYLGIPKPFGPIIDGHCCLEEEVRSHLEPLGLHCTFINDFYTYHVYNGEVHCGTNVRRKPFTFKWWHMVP

[6] = target: T3, mouse protein arginine deiminase 4 …; experiment: BLI; Octet RED384; biotinylated mPAD4 on streptavidin biosensors, antibody as analyte; TBSTB; 10 mM Ca2+; details: both partners purified
hPAD4 Y435A = target: T4, hPAD4 Y435A (human, UniProt Q9UM07, Y435A); experiment: BLI; Octet RED384; biotinylated hPAD4 (WT or mutant) on streptavidin biosensors, purified binder as analyte; TBSTB; calcium concentration not told for these experiments; 1:1 monovalent model; details: both partners purified
T4 construct: Protein arginine deiminase 4, human, point mutant; Mutant of the hPAD4 construct m1; source: cloned and expressed as hPAD4 (E. coli, Ni-NTA)
T4 sequence (Q9UM07 whole entry Y435A): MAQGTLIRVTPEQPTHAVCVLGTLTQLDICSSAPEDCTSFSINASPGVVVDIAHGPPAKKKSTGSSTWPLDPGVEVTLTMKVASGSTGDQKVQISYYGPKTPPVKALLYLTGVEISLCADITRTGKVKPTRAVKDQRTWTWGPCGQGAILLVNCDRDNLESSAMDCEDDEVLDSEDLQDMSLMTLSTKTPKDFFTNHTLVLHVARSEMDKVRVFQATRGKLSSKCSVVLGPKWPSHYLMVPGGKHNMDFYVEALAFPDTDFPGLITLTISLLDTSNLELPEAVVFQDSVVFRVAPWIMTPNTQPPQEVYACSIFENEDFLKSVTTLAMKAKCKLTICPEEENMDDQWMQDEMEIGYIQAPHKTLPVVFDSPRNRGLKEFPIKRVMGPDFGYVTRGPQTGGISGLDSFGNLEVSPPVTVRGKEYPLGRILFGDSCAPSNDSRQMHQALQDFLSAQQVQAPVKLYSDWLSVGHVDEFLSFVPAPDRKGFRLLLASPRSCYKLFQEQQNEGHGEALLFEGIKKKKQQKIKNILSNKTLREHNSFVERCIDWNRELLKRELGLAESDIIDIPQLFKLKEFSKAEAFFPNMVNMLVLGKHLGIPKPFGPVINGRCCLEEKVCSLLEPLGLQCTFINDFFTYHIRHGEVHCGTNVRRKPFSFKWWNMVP

hPAD4 R8E = target: T5, hPAD4 R8E (human, UniProt Q9UM07, R8E); experiment: as above; details: both partners purified
T5 construct: Protein arginine deiminase 4, human, point mutant; Mutant of the hPAD4 construct m1; source: cloned and expressed as hPAD4 (E. coli, Ni-NTA)
T5 sequence (Q9UM07 whole entry R8E): as the sequence (Q9UM07 whole entry Y435A) above, with R8E, A435Y counted along it

[7] = target: T6, hPAD4 R8E–Y435A double mutant (human, UniProt Q9UM07, R8E | Y435A); experiment: as above; details: both partners purified
T6 construct: Protein arginine deiminase 4, human, double mutant; Mutant of the hPAD4 construct m1; also called R8E/Y435 double mutant; source: cloned and expressed as hPAD4 (E. coli, Ni-NTA)
T6 sequence (Q9UM07 whole entry R8E/Y435A): as the sequence (Q9UM07 whole entry Y435A) above, with R8E counted along it

PAD2 = target: T7, PAD2 (Homo sapiens (assumed), UniProt Q9Y2J8); experiment: BLI; binding of the functional human antibodies to PAD4, PAD2 and PAD3; who was immobilised and the antibody format are not told for this experiment; details: both partners purified
T7 construct: PAD2, commercially available; also called protein arginine deiminase 2
T7 sequence (Q9Y2J8 whole entry): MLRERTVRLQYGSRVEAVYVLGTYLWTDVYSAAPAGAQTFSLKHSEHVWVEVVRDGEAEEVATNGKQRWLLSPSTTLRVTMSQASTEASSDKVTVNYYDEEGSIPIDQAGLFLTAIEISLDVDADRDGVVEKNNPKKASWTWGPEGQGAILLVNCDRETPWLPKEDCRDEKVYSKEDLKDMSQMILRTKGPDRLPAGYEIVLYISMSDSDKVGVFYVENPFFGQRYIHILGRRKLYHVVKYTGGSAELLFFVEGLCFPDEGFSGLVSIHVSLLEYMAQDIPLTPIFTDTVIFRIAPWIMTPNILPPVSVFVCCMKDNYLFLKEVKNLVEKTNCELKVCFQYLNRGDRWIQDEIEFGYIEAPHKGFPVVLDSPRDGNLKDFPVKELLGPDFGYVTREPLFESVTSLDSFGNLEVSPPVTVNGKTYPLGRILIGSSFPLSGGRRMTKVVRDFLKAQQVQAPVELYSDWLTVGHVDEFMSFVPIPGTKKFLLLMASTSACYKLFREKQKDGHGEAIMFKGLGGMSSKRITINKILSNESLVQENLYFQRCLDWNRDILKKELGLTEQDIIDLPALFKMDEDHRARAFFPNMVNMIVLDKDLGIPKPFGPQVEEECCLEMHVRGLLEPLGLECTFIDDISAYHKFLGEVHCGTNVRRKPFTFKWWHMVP

[8] = target: T1, human protein arginine deiminase 4 …; experiment: as above; details: both partners purified

T1 sequence (Q9UM07 whole entry): as the sequence (Q9UM07 whole entry Y435A) above, with A435Y counted along it

B1: E3 (affinity-matured variant of hI365) (antibody, V domains shown)
VH: EVQLVESGGGLVQPGGSLRLSCAASGFNFFYSIHWVRQAPGKGLEWVASISPYTDYTSYADSVKGRFTISADTSKNTAYLQMNSLRAEDTAVYYCARKHPGSYPFWGFALDYWGQGTLVTVSS
VL: DIQMTQSPSSLSASVGDRVTITCRASQSVSSAVAWYQQKPGKAPKLLIYSASSLYSGVPSRFSGSRSGTDFTLTISSLQPEDFATYYCQQSSSSLVTFGQGTKVEIK
- IC50 of PAD4 inhibition [1]: 94 nM
- IC50 of inhibition of PAD4 citrullination of histone H3 (western blot) [1]: 95 nM

B2: hI364 IgG (antibody, V domains shown)
VH: EVQLVESGGGLVQPGGSLRLSCAASGFNVYSSSIHWVRQAPGKGLEWVASISSSSGSTSYADSVKGRFTISADTSKNTAYLQMNSLRAEDTAVYYCARYSDHYYYWSYWSSWYSGLDYWGQGTLVTVSS
VL: B1 VL with V96I
notes: heavy chain of hI364 fused to hIgG1-Fc (pFUSE-hIgG1-Fc); light chain of hI364; The activity screen and the selection were done with the Fab form; source: Expi293, transiently cotransfected, purified (protein A or Ni-NTA); copies: 2 + 2
- Kd [2]: 0.64 nM

B3: E6 (affinity-matured variant of hI365) (antibody, V domains shown)
VH: B1 VH with F30Y, Y56R, S102R, F105N
VL: DIQMTQSPSSLSASVGDRVTITCRASQSVSSAVAWYQQKPGKAPKLLIYSASSLYSGVPSRFSGSRSGTDFTLTISSLQPEDFATYYCQQSMSSQLVTFGQGTKVEIK
notes: variant of the heavy chain of hI365 from soft-randomisation libraries; variant of the light chain of hI365; CDR L3 of ten amino acids; also called clone E6
- IC50 of inhibition of PAD4 citrullination of histone H3 (western blot) [1]: 13 nM
- binding result (PAD3): no binding

B4: hI365 IgG (antibody, V domains shown)
VH: B1 VH with F30Y, T54S, D55G, F108W
VL: B1 VL
notes: heavy chain of hI365 fused to hIgG1-Fc (pFUSE-hIgG1-Fc); as the light chain of m16; also called WT hI365; source: Expi293, transiently cotransfected, purified (protein A or Ni-NTA); copies: 2 + 2
- Kd [2]: 1.2 nM

B5: hI365 G58D (antibody, V domains shown)
VH: B1 VH with F30Y, T54S, F108W
VL: B1 VL
notes: as the heavy chain of hI365 with the stated change; as the light chain of hI365; also called mutant G58D
- binding result [3]: binds

B6: hI281 Fab (Fab, V domains shown)
VH: EVQLVESGGGLVQPGGSLRLSCAASGFNVSYSSIHWVRQAPGKGLEWVASIYPYYGSTSYADSVKGRFTISADTSKNTAYLQMNSLRAEDTAVYYCARQMYYWMFSKLALDYWGQGTLVTVSS
VL: B3 VL with M92Y, S93Y, S94R, Q95T, V97F
notes: Fab heavy chain of hI281; light chain of hI281; From synthetic Fab-phage library E (4D5-type scaffold); also called Fab-hI281; source: E. coli C43 (DE3) Pro+, purified (Ni-NTA)
- binding result [4]: binds

B7: mA342 IgG (antibody, V domains shown)
VH: EVQLVESGGGLVQPGGSLRLSCAASGFNVYSSSIHWVRQAPGKGLEWVASISSSSGYTYYADSVKGRFTISADTSKNTAYLQMNSLRAEDTAVYYCARYSYSIYYYSGYPYYHMGLDYWGQGTLVTVSS
VL: B3 VL with S91W, M92S, S93Y, Q95R, V97I
notes: heavy chain of mA342 fused to hIgG1-Fc (pFUSE-hIgG1-Fc); light chain of mA342; also called WT mA342; source: Expi293, transiently cotransfected, purified (protein A or Ni-NTA); copies: 2 + 2
- Kd [5]: 200000 nM
- Kd [6]: < 1 nM

B8: mA342-c3 (antibody, V domains shown)
VH: B7 VH with Y101A, Y111A, M114A
VL: B3 VL with S91W, M92S, S93Y, Q95R, V97A
notes: as the heavy chain of m20 with the stated changes; as the light chain of m20 with the stated change; The text names it mA342-c3, the legends mA342-c4
- binding result [6]: binds

B9: hA288 Fab (Fab, V domains shown)
VH: EVQLVESGGGLVQPGGSLRLSCAASGFNVYYSSIHWVRQAPGKGLEWVASIYSYSGSTSYADSVKGRFTISADTSKNTAYLQMNSLRAEDTAVYYCARYWPKMAGYWYIYRFALDYWGQGTLVTVSS
VL: B3 VL with S91Y, M92R, S93Q, S94Y, Q95N, V97I
notes: Fab heavy chain of hA288; light chain of hA288; source: E. coli C43 (DE3) Pro+, purified (Ni-NTA)
- binding result [4]: binds

B10: hI281 IgG (antibody, V domains shown)
VH: B6 VH
VL: B3 VL with M92Y, S93Y, S94R, Q95T, V97F
notes: heavy chain of hI281 fused to hIgG1-Fc (pFUSE-hIgG1-Fc); as the light chain of m10; IgG1; source: Expi293, transiently cotransfected, purified (protein A or Ni-NTA); copies: 2 + 2
- binding result [2]: binds

B11: hA362 Fab (Fab, V domains shown)
VH: EVQLVESGGGLVQPGGSLRLSCAASGFNVSYYSIHWVRQAPGKGLEWVASISPYYGSTYYADSVKGRFTISADTSKNTAYLQMNSLRAEDTAVYYCARHPYRKGYSGLDYWGQGTLVTVSS
VL: B3 VL with M92S, S93Y, S94L, Q95P, V97F
notes: Fab heavy chain of hA362; light chain of hA362; also called Fab hA362; source: E. coli C43 (DE3) Pro+, purified (Ni-NTA)
- fold decrease of binding affinity against WT hPAD4 (hPAD4 Y435A): ~10 fold
- fold decrease of binding affinity against WT hPAD4 (hPAD4 R8E): ~3 fold
- fold decrease of binding affinity against WT hPAD4 [7]: ~160 fold
- binding result [4]: binds

B12: hA362 IgG (antibody, V domains shown)
VH: B11 VH
VL: B3 VL with M92S, S93Y, S94L, Q95P, V97F
notes: heavy chain of hA362 fused to hIgG1-Fc (pFUSE-hIgG1-Fc); as the light chain of m13; IgG1; source: Expi293, transiently cotransfected, purified (protein A or Ni-NTA); copies: 2 + 2
- binding result (PAD2): no binding
- binding result [8]: binds
